Residues, ends and D or L forms follow the SMILES beside them.
What was measured:
BEAS-2B cells = experiment: MTT assay with 11R-peptides on bronchial epithelia derived cells; type: cell-based; settings: human bronchial epithelia derived, CDCA8 and AURKB hardly detectable
Experimental: LC319, SBC-5 cells and BEAS-2B cells were incubated with the 11R-peptides at the concentration of 2.5 micromoles, 5 micromoles, and 7.5 micromoles for seven days. The medium was exchanged at every 48 hours at the appropriate concentrations of each peptide and the viability of cells was evaluated by MTT assay at 7 days after the treatment. To confirm the transduction efficiency of the peptides, the 11R-CDCA8261-280 and its control peptides labeled with fluorescein isothiocyanate (FITC) at N-terminus were synthesized. Transduction of the peptides (2.5-7.5 micromoles) was monitored by fluorescence microscopic observation after a 3-hour incubation of the peptides with the cell lines at 37 degrees C.

MRC5 cells = experiment: MTT assay with 11R-peptides on normal lung fibroblasts; type: cell-based; settings: MRC5, normal human lung fibroblast derived; CDCA8 and AURKB hardly detectable
CCD19-Lu cells = experiment: Cell viability with 11R-peptides on normal lung fibroblasts; type: cell-based; settings: normal human lung fibroblast derived, CDCA8 and AURKB hardly detectable
[1] = molecular target: T1, full-length recombinant CDCA8 protein (wild-type, N-terminal His tag)
T1 chain: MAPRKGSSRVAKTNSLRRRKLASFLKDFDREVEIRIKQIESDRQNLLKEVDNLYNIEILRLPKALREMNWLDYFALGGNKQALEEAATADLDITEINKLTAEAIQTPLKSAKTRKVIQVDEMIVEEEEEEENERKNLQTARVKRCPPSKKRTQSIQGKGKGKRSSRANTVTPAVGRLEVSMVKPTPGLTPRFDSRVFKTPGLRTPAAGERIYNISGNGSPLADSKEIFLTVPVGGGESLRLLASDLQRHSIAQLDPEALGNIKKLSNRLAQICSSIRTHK

CDCA8delta8 = molecular target: T2, CDCA8delta8
T2 chain: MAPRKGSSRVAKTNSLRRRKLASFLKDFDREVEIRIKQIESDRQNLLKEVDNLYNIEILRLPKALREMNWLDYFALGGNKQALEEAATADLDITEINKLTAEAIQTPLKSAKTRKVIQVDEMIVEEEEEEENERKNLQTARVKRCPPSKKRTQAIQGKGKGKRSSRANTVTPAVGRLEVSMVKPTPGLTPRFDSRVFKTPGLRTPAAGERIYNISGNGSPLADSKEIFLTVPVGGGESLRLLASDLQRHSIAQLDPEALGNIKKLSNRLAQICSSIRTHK

CDCA8delta11 = molecular target: T3, CDCA8delta11
T3 chain: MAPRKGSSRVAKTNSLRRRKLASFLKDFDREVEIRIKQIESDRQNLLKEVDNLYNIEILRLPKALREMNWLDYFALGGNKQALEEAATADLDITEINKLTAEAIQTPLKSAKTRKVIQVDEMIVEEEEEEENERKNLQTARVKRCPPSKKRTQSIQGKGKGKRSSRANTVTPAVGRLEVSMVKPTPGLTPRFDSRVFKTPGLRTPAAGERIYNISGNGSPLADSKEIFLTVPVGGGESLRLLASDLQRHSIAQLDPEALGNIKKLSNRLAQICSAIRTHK

CDCA8delta12 = molecular target: T4, CDCA8delta12
T4 chain: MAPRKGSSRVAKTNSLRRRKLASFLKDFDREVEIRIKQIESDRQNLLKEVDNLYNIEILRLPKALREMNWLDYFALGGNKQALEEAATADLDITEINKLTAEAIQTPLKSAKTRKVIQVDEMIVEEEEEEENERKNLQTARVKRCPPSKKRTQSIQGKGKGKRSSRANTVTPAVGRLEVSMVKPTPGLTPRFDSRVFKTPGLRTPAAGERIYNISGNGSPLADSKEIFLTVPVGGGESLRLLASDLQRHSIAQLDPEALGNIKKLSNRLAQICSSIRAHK

11R-CDCA8261-280 = molecular target: T5, 11R-CDCA8261-280
T5 chain: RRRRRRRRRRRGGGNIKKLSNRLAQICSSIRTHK

CDCA8delta13 = molecular target: T6, CDCA8delta13
T6 chain: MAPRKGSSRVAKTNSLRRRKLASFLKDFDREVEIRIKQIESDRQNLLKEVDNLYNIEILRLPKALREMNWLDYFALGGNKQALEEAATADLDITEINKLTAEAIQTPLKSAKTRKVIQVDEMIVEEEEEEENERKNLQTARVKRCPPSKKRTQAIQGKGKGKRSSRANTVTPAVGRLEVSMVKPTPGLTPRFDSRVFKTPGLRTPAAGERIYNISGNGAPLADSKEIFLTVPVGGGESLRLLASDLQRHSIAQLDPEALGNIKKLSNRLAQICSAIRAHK

CDCA8delta9 = molecular target: T7, CDCA8delta9
T7 chain: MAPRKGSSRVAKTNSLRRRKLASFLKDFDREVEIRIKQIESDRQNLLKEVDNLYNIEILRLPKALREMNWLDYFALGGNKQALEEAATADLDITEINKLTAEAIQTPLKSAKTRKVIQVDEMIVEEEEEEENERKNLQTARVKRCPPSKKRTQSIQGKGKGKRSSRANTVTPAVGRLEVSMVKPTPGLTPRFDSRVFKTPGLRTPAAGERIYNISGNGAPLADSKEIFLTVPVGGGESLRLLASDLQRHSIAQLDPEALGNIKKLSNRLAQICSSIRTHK

Molecule	cell viability of normal cells (BEAS-2B cells)	cell viability of normal cells (MRC5 cells)	cell viability of normal cells (CCD19-Lu cells)	phosphorylation level in in vitro kinase assay (CDCA8delta1)	phosphorylation level in in vitro kinase assay (CDCA8delta7)	in vitro phosphorylation ([gamma-32P] ATP kinase assay) [1]	phosphorylation level in in vitro kinase assay (CDCA8delta8)	phosphorylation level in in vitro kinase assay (CDCA8delta4)	phosphorylation level in in vitro kinase assay (CDCA8delta2)	phosphorylation level in in vitro kinase assay (CDCA8delta10)	phosphorylation level in in vitro kinase assay (CDCA8delta6)	phosphorylation level in in vitro kinase assay (CDCA8delta11)	phosphorylation level in in vitro kinase assay (CDCA8delta3)	phosphorylation level in in vitro kinase assay (CDCA8delta12)	phosphorylation level of rhCDCA8 by rhAURKB in in vitro kinase assay (11R-CDCA8261-280)	phosphorylation level in in vitro kinase assay (CDCA8delta13)	phosphorylation level in in vitro kinase assay (CDCA8delta9)	phosphorylation level in in vitro kinase assay (CDCA8delta5)
CC[C@H](C)[C@H](NC(=O)[C@H](CC(N)=O)NC(=O)CNC(=O)CNC(=O)CNC(=O)[C@H](CCCNC(=N)N)NC(=O)[C@H](CCCNC(=N)N)NC(=O)[C@H](CCCNC(=N)N)NC(=O)[C@H](CCCNC(=N)N)NC(=O)[C@H](CCCNC(=N)N)NC(=O)[C@H](CCCNC(=N)N)NC(=O)[C@H](CCCNC(=N)N)NC(=O)[C@H](CCCNC(=N)N)NC(=O)[C@H](CCCNC(=N)N)NC(=O)[C@H](CCCNC(=N)N)NC(=O)[C@@H](N)CCCNC(=N)N)C(=O)N[C@@H](CCCCN)C(=O)N[C@@H](CCCCN)C(=O)N[C@@H](CC(C)C)C(=O)N[C@@H](CO)C(=O)N[C@@H](CC(N)=O)C(=O)N[C@@H](CCCNC(=N)N)C(=O)N[C@@H](CC(C)C)C(=O)N[C@@H](C)C(=O)N[C@@H](CCC(N)=O)C(=O)N[C@H](C(=O)N[C@@H](CS)C(=O)N[C@@H](CO)C(=O)N[C@@H](CO)C(=O)N[C@H](C(=O)N[C@@H](CCCNC(=N)N)C(=O)N[C@H](C(=O)N[C@@H](Cc1c[nH]cn1)C(=O)N[C@@H](CCCCN)C(=O)O)[C@@H](C)O)[C@@H](C)CC)[C@@H](C)CC [11R-CDCA8261-280] (H-RRRRRRRRRRRGGGNIKKLSNRLAQICSSIRTHK-OH)	no significant growth suppressive effect	no off-target effect	no effect															
recombinant AURKB (Catalog No. 14-489; upstate) (protein) MAQKENSYPWPYGRQTAPSGLSTLPQRVLRKEPVTPSALVLMSRSNVQPTAAPGQKVMENSSGTPDILTRHFTIDDFEIGRPLGKGKFGNVYLAREKKSHFIVALKVLFKSQIEKEGVEHQLRREIEIQAHLHHPNILRLYNYFYDRRRIYLILEYAPRGELYKELQKSCTFDEQRTATIMEELADALMYCHGKKVIHRDIKPENLLLGLKGELKIADFGWSVHAPSLRRKTMCGTLDYLPPEMIEGRMHNEKVDLWCIGVLCYELLVGNPPFESASHNETYRRIVKVDLKFPASVPMGAQDLISKLLRHNPSERLPLAQVSAHPWVRANSRRVLPPSALQSVA				represented the same levels of phosphorylation compared to wild-type CDCA8	showed the same levels of phosphorylation compared with wild-type	CDCA8 was phosphorylated in an AURKB-dose-dependent manner	revealed the reduction of phosphorylation levels in four mutated-constructs	represented the same levels of phosphorylation compared to wild-type CDCA8	a reduction of phosphorylation levels was detected in three mutated constructs (CDCA8delta2, -delta5, and -delta6), as compared to a wild-type	showed the same levels of phosphorylation compared with wild-type	a reduction of phosphorylation levels was detected in three mutated constructs (CDCA8delta2, -delta5, and -delta6), as compared to a wild-type	revealed the reduction of phosphorylation levels in four mutated-constructs	represented the same levels of phosphorylation compared to wild-type CDCA8	revealed the reduction of phosphorylation levels in four mutated-constructs	the phosphorylation level of rhCDCA8 was significantly suppressed by the treatment with 11R-CDCA8261-280 peptides ... compared to its scramble peptides	complete disappearance of CDCA8 phosphorylation by AURKB	revealed the reduction of phosphorylation levels in four mutated-constructs	a reduction of phosphorylation levels was detected in three mutated constructs (CDCA8delta2, -delta5, and -delta6), as compared to a wild-type

Source: patent US20100184047A1, “SCREENING AND THERAPEUTIC METHOD FOR NSCLC TARGETING THE CDCA8-AURKB COMPLEX” (ONCOTHERAPY SCIENCE, INC., priority 2007, published 2010)
